Results taken from IntAct's records for PubMed 17643121.

B1: BRCA1-A complex subunit Abraxas 1 (Homo sapiens), Q6UWZ7 (parent)
chain: MEGESTSAVLSGFVLGALAFQHLNTDSDTEGFLLGEVKGEAKNSITDSQMDDVEVVYTIDIQKYIPCYQLFSFYNSSGEVNEQALKKILSNVKKNVVGWYKFRRHSDQIMTFRERLLHKNLQEHFSNQDLVFLLLTPSIITESCSTHRLEHSLYKPQKGLFHRVPLVVANLGMSEQLGYKTVSGSCMSTGFSRAVQTHSSKFFEEDGSLKEVHKINEMYASLQEELKSICKKVEDSEQAVDKLVKDVNRLKREIEKRRGAQIQAAREKNIQKDPQENIFLCQALRTFFPNSEFLHSCVMSLKNRHVSKSSCNYNHHLDVVDNLTLMVEHTDIPEASPASTPQIIKHKALDLDDRWQFKRSRLLDTQDKRSKADTGSSNQDKASKMSSPETDEEIEKMKGFGEYSRSPTF

Variants of: B1
Conditions: with brca1_human BRCA1, P38398
brca1_human BRCA1, P38398, sequence (P38398 whole entry, looked up): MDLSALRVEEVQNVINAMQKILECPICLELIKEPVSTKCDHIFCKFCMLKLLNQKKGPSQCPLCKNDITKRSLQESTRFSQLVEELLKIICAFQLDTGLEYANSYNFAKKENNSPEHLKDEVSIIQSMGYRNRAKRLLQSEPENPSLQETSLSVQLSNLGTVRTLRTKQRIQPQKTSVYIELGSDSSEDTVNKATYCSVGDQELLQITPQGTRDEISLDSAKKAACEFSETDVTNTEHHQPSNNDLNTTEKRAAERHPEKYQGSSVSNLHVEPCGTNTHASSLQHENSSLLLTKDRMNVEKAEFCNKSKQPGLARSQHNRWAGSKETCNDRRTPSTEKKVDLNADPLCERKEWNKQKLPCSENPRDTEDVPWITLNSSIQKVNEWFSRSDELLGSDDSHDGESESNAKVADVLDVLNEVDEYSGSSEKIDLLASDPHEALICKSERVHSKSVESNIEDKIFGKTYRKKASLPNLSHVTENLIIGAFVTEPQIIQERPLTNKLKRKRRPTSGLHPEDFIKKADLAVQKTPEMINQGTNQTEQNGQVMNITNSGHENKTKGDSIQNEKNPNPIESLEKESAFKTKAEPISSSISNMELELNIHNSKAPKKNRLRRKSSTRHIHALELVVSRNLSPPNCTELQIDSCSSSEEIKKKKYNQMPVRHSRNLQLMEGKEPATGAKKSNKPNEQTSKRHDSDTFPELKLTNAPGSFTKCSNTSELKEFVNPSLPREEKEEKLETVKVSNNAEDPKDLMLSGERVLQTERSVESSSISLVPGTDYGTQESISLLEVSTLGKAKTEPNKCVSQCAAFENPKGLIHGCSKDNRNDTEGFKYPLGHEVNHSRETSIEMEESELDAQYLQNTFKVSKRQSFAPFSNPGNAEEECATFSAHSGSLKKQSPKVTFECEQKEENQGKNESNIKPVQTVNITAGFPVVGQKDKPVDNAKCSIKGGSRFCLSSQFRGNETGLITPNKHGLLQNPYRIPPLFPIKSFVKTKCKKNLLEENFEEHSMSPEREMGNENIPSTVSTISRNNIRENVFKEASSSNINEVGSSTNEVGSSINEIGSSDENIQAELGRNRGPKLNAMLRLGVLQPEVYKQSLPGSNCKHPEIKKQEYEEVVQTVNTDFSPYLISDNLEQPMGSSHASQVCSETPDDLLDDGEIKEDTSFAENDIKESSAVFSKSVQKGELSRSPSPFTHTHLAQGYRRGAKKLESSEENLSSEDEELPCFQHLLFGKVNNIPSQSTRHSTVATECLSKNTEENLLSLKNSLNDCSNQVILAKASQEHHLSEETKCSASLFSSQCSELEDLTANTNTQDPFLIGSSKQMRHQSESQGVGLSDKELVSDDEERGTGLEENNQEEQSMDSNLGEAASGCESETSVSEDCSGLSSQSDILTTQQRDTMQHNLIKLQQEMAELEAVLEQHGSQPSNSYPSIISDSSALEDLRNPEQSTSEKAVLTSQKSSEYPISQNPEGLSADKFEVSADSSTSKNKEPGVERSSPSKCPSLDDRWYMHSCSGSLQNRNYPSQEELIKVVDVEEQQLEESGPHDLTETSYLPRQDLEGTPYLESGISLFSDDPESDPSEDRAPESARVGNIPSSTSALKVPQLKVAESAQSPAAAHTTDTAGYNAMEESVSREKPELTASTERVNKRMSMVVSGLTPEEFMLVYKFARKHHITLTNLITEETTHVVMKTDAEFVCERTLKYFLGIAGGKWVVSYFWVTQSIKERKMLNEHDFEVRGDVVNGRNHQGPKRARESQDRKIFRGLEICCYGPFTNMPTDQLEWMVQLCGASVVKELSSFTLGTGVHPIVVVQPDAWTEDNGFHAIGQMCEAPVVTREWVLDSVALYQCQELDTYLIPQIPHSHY

| effect of a mutation on the interaction | Variant |
| --- | --- |
| decreasing interaction | MEGESTSAVLSGFVLGALAFQHLNTDSDTEGFLLGEVKGEAKNSITDSQMDDVEVVYTIDIQKYIPCYQLFSFYNSSGEVNEQALKKILSNVKKNVVGWYKFRRHSDQIMTFRERLLHKNLQEHFSNQDLVFLLLTPSIITESCSTHRLEHSLYKPQKGLFHRVPLVVANLGMSEQLGYKTVSGSCMSTGFSRAVQTHSSKFFEEDGSLKEVHKINEMYASLQEELKSICKKVEDSEQAVDKLVKDVNRLKREIEKRRGAQIQAAREKNIQKDPQENIFLCQALRTFFPNSEFLHSCVMSLKNRHVSKSSCNYNHHLDVVDNLTLMVEHTDIPEASPASTPQIIKHKALDLDDRWQFKRSRLLDTQDKRSKADTGSSNQDKASKMSSPETDEEIEKMKGFGEYSRAPTF [S406A] |
